Assay [1] addresses T1, GST-Raf-RBD, GST fusion protein comprising the Ras Binding Domain of human Raf (Raf-RBD, residues 1-149) (human, UniProt P04049 1-149).
T1 construct: range 1-149; Immobilised on glutathione Sepharose beads; not shown: Glutathione S-transferase (GST) encoded by the pGEX-4T2 plasmid (Pharmacia)
The assay is described as follows: GST pull-down of in vitro 35S-labeled protein.

For assay [2], the target named is T2, N87A-GILZ, full mouse GILZ in which an Asparagine is mutated in Alanine, in vitro 35S-labeled (mouse, UniProt Q9Z2S7 1-137, [35S]-Methionine label).
T2 construct: range 1-137
T2 sequence (looked up): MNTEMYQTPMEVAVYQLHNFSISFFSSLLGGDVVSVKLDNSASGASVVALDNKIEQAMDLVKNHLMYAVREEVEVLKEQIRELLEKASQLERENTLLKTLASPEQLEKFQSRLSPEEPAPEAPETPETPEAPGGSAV
The experiment in a line: GST pull-down of in vitro 35S-labeled protein.

Assay [3] has as its target T3, ERK-1 in lysates of murine thymocytes (mouse, UniProt Q63844 2-380).
T3 construct: Detected together with ERK-2 by α-ERK-1/-2 antibodies; also called ERK-1/-2
The experiment in a line: GST pull-down from murine thymocyte lysates, Western blot with α-ERK-1/-2. As to the method: (§1) Extracts were prepared from the indicated cell, treated or untreated with DEX (10 microMolar), as previously described (Ayroldi E et al., 2001). GST or GST fusion proteins, loaded on Sepharose beads, were mixed with cell extracts in binding buffer (NaCl 250 milliMolar, HEPES (ph7.5) (pH 7.5) 50 milliMolar, EDTA 0.5 milliMolar, Nonidet P-40 0.1% (v/v), phenylmethylsulfonyl fluoride (PMSF) 0.2 milliMolar, dithiothreitol (DTT) 1 milliMolar, bovine serum albumin (BSA) 100 μg/ml), heated for 5 minutes at 42° C., incubated for 2 hours at 4° C., washed extensively with binding buffer, resuspended in loading buffer and analysed by SDS-PAGE and Western blot as described above. In the case of murine thymocytes extracts, the incubation with the beads was performed overnight and at 4° C. The α-MEK and α-ERK antibodies (Upstate Biotechnology) were used following manufacturer's instructions.
For orientation: A western blot detects proteins with antibodies after separation by electrophoresis.

The target in assay [4] is T4, ERK-2 in lysates of murine thymocytes (mouse, UniProt P63085 2-358).
T4 construct: Detected together with ERK-1 by α-ERK-1/-2 antibodies; also called ERK-1/-2
Described as above. As to the method:
as §1

Assay [5] concerns the target T5, GST alone (Glutathione S-transferase, control) (UniProt P08515 1-218 = GST).
T5 construct: Control loaded on glutathione Sepharose beads; also called GST-protein alone
The assay is described as follows: GST pull-down from thymocyte whole cell lysates, Western blot with α-GILZ. On the procedure: as §1

For assay [6], the target named is T5, GST alone (Glutathione S-transferase, …). The assay is described as follows: GST pull-down of in vitro 35S-labeled protein.

Where a chain is given by its changes, count along the chain named.

T5 sequence (P08515 whole entry): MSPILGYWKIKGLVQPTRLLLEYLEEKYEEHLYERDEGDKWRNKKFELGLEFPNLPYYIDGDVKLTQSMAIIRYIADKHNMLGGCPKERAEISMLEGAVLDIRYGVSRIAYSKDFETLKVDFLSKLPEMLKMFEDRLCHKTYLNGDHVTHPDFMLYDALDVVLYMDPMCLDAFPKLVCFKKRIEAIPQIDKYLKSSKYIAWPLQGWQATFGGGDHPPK
T3 sequence (Q63844 2-380 limits assumed): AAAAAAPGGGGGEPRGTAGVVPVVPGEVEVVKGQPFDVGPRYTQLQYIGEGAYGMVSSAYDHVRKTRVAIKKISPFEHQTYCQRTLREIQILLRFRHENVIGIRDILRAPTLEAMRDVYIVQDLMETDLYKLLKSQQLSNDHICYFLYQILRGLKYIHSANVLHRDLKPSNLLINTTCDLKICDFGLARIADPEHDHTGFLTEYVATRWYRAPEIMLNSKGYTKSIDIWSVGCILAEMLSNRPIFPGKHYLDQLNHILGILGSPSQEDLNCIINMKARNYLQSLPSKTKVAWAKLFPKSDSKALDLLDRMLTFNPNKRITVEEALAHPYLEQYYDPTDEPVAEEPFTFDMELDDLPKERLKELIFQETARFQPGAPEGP

B1: ΔN-GILZ, GILZ lacking the N-terminal region (first 8 amino acids of mGILZ fused with the residues 73-137), in vitro 35S-labeled (other)
chain: MNTEMYQTVEVLKEQIRELLEKNSQLERENTLLKTLASPEQLEKFQSRLSPEEPAPEAPETPETPEAPGGSAV
modifications: [35S]-Methionine label ; [35S]-methionine isotopic label from in vitro translation; letters unchanged
notes: also called DN-GILZ; 35S-ΔN-GILZ
For the molecule B1, the binding result in assay [1] is listed as “no binding”.

B2: Glutathione S-transferase GILZ fusion protein (GST-GILZ), containing entire mouse GILZ (other, UniProt Q9Z2S7 1-137, looked up)
chain: T2 sequence (looked up) with A87N
notes: range 1-137; Immobilised on glutathione Sepharose beads; Prepared as in Ayroldi E et al., 2001; not shown: Glutathione S-transferase (GST) encoded by the pGEX-4T2 plasmid (Pharmacia)
For B2, the binding result in assay [2], in assay [3] and in assay [4] was “no binding” each time.

B3: GILZ, endogenous, in whole cell lysates of murine thymocytes (DEX-treated or untreated) (other, mouse, UniProt Q9Z2S7 1-137, looked up)
chain: T2 sequence (looked up) with A87N
notes: also called mGILZ
With B3, the binding result in assay [5] is “no binding”.

B4: in vitro 35S-labeled full GILZ (full-length mouse GILZ, in vitro translated) (other, UniProt Q9Z2S7 1-137, looked up)
chain: T2 sequence (looked up) with A87N
modifications: [35S]-Methionine label
notes: range 1-137; also called 35S-GILZ; GILZ full-length protein
Turning to B4, the binding result in assay [6] is recorded as “no binding”.

B5: ΔC-GILZ, GILZ lacking the C-terminal region (first 97 amino acids of mouse GILZ), in vitro 35S-labeled (other)
chain: MNTEMYQTPMEVAVYQLHNFSTSFFSSLLGGDVVSVKLDNSASGASVVALDNKIEQAMDLVKNHLMYAVREEVEVLKEQIRELLEKNSQLERENTLL
modifications: [35S]-methionine isotopic label from in vitro translation; letters unchanged
notes: also called 35S-AC-GILZ
As for B5, the binding result in assay [6] was “no binding”.

The record behind these values is patent US20050164906A1 (APPLIED RESEARCH SYSTEMS ARS HOLDING N V, published 2005).
